From patent US20070190054A1
pKd: −log10 of the molar value.

What was measured:
[1] = molecular target: murine C3 or a fragment of C3, deposited on particles opsonized with mouse serum (mouse) (UniProt P01027); test: cell-based or functional assay
[2] = molecular target: C3b dimers (C3b2) (human) (UniProt P01024); test: SPR, CRIg-Fc captured on a CM5 chip via an antibody to the Fc tag, dimeric C3b injected, response at equilibrium
[3] = molecular target: C3b (purified; species not stated in Examples 12, 13, 19, 20) (UniProt P01024); test: ELISA; settings: Fc fusion
[4] = molecular target: murine C3 or a fragment of C3, deposited on particles opsonized with mouse serum (mouse) (UniProt P01027); test: flow cytometry; settings: Fc fusion
Target sequence in this assay (P01027 25-666, chain 1 of 2): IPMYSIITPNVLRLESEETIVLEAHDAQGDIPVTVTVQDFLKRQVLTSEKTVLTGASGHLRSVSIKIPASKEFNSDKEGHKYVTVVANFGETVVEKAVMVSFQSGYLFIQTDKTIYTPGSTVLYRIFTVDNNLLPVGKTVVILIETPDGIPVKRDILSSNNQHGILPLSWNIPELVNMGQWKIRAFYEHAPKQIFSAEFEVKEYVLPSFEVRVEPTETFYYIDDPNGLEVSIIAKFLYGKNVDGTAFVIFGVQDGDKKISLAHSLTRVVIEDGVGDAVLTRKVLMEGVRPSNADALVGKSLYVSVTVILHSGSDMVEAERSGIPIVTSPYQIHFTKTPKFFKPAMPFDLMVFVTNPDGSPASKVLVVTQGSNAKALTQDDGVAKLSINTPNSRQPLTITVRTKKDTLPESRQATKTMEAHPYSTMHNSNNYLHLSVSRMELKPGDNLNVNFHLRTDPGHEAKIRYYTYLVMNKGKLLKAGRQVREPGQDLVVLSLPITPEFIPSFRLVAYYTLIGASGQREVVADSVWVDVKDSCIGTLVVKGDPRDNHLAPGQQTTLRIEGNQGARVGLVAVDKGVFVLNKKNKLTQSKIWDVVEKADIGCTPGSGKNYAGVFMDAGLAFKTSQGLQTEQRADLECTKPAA
Target sequence in this assay (P01027 749-1663, chain 2 of 2): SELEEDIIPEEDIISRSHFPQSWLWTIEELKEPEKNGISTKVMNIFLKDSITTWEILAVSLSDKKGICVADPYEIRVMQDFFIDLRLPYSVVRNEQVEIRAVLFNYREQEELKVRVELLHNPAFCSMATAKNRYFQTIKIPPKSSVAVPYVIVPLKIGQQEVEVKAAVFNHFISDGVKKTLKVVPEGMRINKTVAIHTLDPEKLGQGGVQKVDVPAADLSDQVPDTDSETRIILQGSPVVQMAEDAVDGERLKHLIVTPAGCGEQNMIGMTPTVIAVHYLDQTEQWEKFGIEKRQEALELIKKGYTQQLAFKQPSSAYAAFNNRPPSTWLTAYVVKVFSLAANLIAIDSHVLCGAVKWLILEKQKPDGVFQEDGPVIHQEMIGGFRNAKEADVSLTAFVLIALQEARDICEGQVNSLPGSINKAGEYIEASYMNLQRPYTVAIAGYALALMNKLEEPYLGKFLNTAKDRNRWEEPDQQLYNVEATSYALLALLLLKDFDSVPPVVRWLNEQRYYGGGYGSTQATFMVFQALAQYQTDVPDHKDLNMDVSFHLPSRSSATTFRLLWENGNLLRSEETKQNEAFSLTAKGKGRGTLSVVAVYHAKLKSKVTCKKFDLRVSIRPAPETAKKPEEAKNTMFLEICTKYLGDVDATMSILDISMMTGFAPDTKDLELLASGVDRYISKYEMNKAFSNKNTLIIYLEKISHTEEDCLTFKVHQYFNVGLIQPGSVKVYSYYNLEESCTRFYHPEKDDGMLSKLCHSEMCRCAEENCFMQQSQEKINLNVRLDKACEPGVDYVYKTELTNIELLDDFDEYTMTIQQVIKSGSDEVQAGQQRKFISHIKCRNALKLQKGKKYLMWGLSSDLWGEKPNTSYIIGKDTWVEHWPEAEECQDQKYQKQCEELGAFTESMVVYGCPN

## complement receptor 3 (CR3) on mouse Kupffer cells (from UniProt P05555 17-1153; P11835 24-771)
[1]
  further reduction in rosette formation with the addition of CR3 blocking antibody: < 20%

## huCRIg(L)-Fc fusion protein (from UniProt Q9Y279 20-283)
[2]
  pKd: 6.88

## human CRIg-Fc fusion protein (long or short form not specified) (from UniProt Q9Y279 20-283)
[3]
  pKd: 7.12

## murine CRIg expressed on the cell surface (receptor)
[1]
  reduction in E-IgM rosetting of CRIg ko KCs compared to CRIg wt KCs: 60%

## huCRIg(S)-Fc fusion protein (from UniProt Q9Y279 20-283)
[2]
  pKd: 7.36

## murine CRIg-Fc fusion protein
[3]
  pKd: 7.30
[4]
  pKd: 7.77
